From US20240207432A1 (BIOSION, published 2024)
Read-outs that look alike come from different tables or passages of the source.

Tests used:
[1] = molecular target: T1, full length human TROP2 on 293F-TROP2 cells (human, UniProt P09758 27-323); assay: FACS on 293F-TROP2 cells, MFI
T1 construct: also called 293F-TROP2 cells (clone ID #3A8); cell surface TROP2
T1 sequence: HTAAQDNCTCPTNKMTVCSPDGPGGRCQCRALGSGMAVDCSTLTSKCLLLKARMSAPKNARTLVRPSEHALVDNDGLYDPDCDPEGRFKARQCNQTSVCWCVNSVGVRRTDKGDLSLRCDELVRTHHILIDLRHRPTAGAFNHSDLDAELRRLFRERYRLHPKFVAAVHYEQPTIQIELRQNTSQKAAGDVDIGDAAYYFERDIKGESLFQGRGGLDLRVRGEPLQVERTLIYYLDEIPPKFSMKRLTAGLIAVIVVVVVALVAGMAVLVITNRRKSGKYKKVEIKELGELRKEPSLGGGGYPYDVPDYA
Experimental: The binding activity of the mouse anti-TROP2 antibodies to cell surface TROP2 proteins was tested by flow cytometry (FACS), using Biosion in-house prepared 293F-TROP2 cells (clone ID #3A8) stably expressing full length human TROP2s (uniprot #P09758, SEQ ID NO.: 71) on cell membrane. The 293F-TROP2 cells were prepared by transfecting 293F cells (Thermofisher Inc., Cat #11625019) with a pCMV-T-P plasmid inserted with human TROP2 coding sequence between EcoRI and XbaI sites, following the instruction of lipofectamine 3000 transfection reagent (Thermo Fisher).
The 293F-TROP2 cells were harvested from cell culture flasks, washed twice and re-suspended in phosphate buffered saline (PBS) containing 2% v/v Fetal Bovine Serum (FACS buffer). […] Following an incubation of 40 minutes at 4° C. in dark, cells were washed twice and re-suspended in FACS buffer. Fluorescence was measured using a Becton Dickinson FACS Canto II-HTS equipment, and the MFI (mean fluorescence intensity) was plotted against antibody concentration. Data was analyzed using Graphpad Prism software and EC₅₀ values were reported.

human TROP2-his protein = molecular target: T2, human TROP2-his protein (human, UniProt P09758 27-274); assay: SPR Biacore T200, mAb captured on anti-mouse IgG CM5 chip, TROP2-his analyte
T2 construct: Biotin-labelled in the ELISAs, unlabelled analyte in Biacore; also called biotin-labeled human TROP2-his protein; biotin human Trop2-his
T2 sequence: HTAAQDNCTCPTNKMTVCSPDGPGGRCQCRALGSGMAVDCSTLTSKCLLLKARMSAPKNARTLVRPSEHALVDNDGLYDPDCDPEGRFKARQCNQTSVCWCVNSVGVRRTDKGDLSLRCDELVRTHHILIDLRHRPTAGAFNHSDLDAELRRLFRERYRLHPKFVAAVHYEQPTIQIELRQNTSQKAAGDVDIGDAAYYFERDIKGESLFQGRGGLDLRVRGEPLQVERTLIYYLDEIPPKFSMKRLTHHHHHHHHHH
Experimental: (§1) Un-reacted moieties on the chip (biosensor) surface were blocked with ethanolamine. […] The antigen-antibody association kinetics was followed for 2 minutes and the dissociation kinetics was followed for 10 minutes. The association and dissociation curves were fit to a 1:1 Langmuir binding model using BIAcore evaluation software.

[2] = molecular target: T3, cynomolgus TROP2-his protein (cynomolgus monkey, UniProt P09758 27-272 (human entry), limits assumed); assay: as above
T3 construct: no cleavage site is stated; also called Cynomolgus monkey TROP2-his protein; monkey TROP2
T3 chain: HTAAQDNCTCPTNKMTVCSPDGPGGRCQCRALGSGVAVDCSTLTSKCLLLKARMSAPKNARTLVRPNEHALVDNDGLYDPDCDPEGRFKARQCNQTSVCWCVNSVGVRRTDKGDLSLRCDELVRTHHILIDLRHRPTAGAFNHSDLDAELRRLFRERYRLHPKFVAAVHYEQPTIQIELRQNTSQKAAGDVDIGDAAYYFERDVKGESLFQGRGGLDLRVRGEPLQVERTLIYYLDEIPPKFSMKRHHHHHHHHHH
Experimental: as §1

[3] = molecular target: T3, cynomolgus TROP2-his protein; assay: indirect ELISA, cynomolgus TROP2-his coated at 2 ug/mL, OD(450-630)
Experimental: The anti-TROP2 antibodies of the disclosure were tested for their cross-reaction with cynomolgus TROP2 proteins. Briefly, 96-well micro plates were coated with 100 μl 2 μg/ml cynomolgus TROP2-his proteins (prepared in-house with SEQ ID NO: 70) in carbonate/bicarbonate buffer (pH 9.6) overnight at 4° C. ELISA plates were washed once with wash buffer (PBS+0.05% v/v Tween-20, PBST) and then blocked with 200 μl/well blocking buffer (5% w/v non-fatty milk in PBST) for 2 hours at 37° C. […] After a final wash, plates were incubated with 100 μl/well TMB (Innoreagents) at room temperature. The reaction was stopped 3-10 minutes later at room temperature with 50 μl/well 1M H₂SO₄, and the absorbance of each well was read on a microplate reader using dual wavelength mode with 450 nm for TMB and 630 nm as the reference wavelength. The OD (450-630) values were plotted against antibody concentration. Data was analyzed using Graphpad Prism software and EC₅₀ values were reported.

[4] = molecular target: T1, full length human TROP2 on 293F-TROP2 …; assay: FACS on 293F-TROP2 cells, MFI; remark: listed apart in the source
[5] = molecular target: T3, cynomolgus TROP2-his protein; assay: indirect ELISA, cynomolgus TROP2-his coated, OD(450-630)

B1: mouse antibody A1E11A12D1 (antibody, V domains shown)
VH: QVQLQQSGAELARPGASVKLSCMASGYTFTTYGISWVRQRTGQGLEWIGQIYPGSDYSYCDEDFKGKATLTADKSSSTAYMQLSSLTSEDSAVYFCARASYFDYWGQGTTLTVSS
VL: DILLTQSPAILSVSPGERVSFSCRASQTIGTAIHWYQQRANGSPRLLIKYASESISGIPSRFSGSGSGTDFALSINTVESEDFAYYYCQQSNNWPFTFGGGTKLEIR
notes: Mouse monoclonal IgG purified from hybridoma supernatant
**Q.** With B1 as the binder, how does the EC50 [1] read?
**A.** 0.78 nM

**Q.** What about the Kd (human TROP2-his protein) of the same binder?
**A.** 0.154 nM

**Q.** What about the koff (human TROP2-his protein) of the same binder?
**A.** 8.09e-05 s⁻¹

**Q.** And the kon (human TROP2-his protein)?
**A.** 525000 M⁻¹ s⁻¹

**Q.** What about the Kd [2] of the same binder?
**A.** 0.0563 nM

**Q.** And the koff [2]?
**A.** 3.82e-05 s⁻¹

**Q.** And the kon [2]?
**A.** 678000 M⁻¹ s⁻¹

**Q.** And the EC50 [3]?
**A.** 0.757 nM

B2: mouse antibody A1H3C5H8E12 (antibody, V domains shown)
VH: QVQLQQSGAELVRPGTSVKMSCKAAGYTFTNYWIDWVKQRPGHGLEWIGNIFPGGFYTNYNEKFKGKATLTADTSSSTAYMQLSSLTSEDSAIYYCARGGVFDYWGQGTTLTVSS
VL: DILLTQSPAILSVSPGERVSFSCRASQSIGTSIHWYQQRTNGSPRLLIKYASESISGIPSRFSGSGSGTDFTLSINSVESEDIADYYCQQSNSWPYTFGGGTKLEIK
notes: as for B1
**Q.** How did the EC50 [1] turn out when B2 was run?
**A.** 0.773 nM

**Q.** And the Kd (human TROP2-his protein)?
**A.** 1.81 nM

**Q.** And the koff (human TROP2-his protein)?
**A.** 0.000961 s⁻¹

**Q.** What about the kon (human TROP2-his protein) of the same binder?
**A.** 531000 M⁻¹ s⁻¹

**Q.** What about the Kd [2] of the same binder?
**A.** 1.12 nM

**Q.** And the koff [2]?
**A.** 0.000758 s⁻¹

**Q.** What about the kon [2] of the same binder?
**A.** 674000 M⁻¹ s⁻¹

**Q.** What about the EC50 [3] of the same binder?
**A.** 0.593 nM

B3: benchmark (in house prepared sacituzumab) (antibody, human IgG1, kappa, V domains shown)
VH: SVQLQQSGSELKKPGASVKVSCKASGYTFTNYGMNWVKQAPGQGLKWMGWINTYTGEPTYTDDFKGRFAFSLDTSVSTAYLQISSLKADDTAVYFCARGGFGSSYWYFDVWGQGSLVTVSS
VL: DIQLTQSPSSLSASVGDRVSITCKASQDVSIAVAWYQQKPGKAPKLLIYSASYRYTGVPDRFSGSGSGTDFTLTISSLQPEDFAVYYCQQHYITPLTFGAGTKVEIKR
notes: also called BM; BM1
**Q.** With B3 as the binder, how does the EC50 [1] read?
**A.** 0.83 nM

**Q.** And the EC50 [3]?
**A.** 0.134 nM

**Q.** And the EC50 [4]?
**A.** 1.14 nM

**Q.** What about the EC50 [5] of the same binder?
**A.** 0.191 nM

B4: mouse antibody C1B3B12D2 (antibody, V domains shown)
VH: QVQLQQSGPELVRPGTSVKMSCKAAGYTFTKFWIGWVKQRPGHGLEWIGNIYPGGAYINYNENFKGKATLTADTFSSTAYMQLNSLTSADSAIYYCAREGSSGYWGQGTTLTVSS
VL: DIVMTQSPSSLTVTAGEKVTLSCKCSQSLLNSGTQENYLTWYQQKPGQPPKMLIYWASIREPGVPDRFTGSGSGTDFTLTINNVQAEDLAVYYCQHDYSYPFTFGSGTKLEIK
notes: as for B1
**Q.** How did the “EC50 (read off the curve)” value [1] turn out when B4 was run?
**A.** ~1 nM

**Q.** And the Kd (human TROP2-his protein)?
**A.** 0.00136 nM

**Q.** What about the koff (human TROP2-his protein) of the same binder?
**A.** 6.45e-07 s⁻¹

**Q.** And the kon (human TROP2-his protein)?
**A.** 476000 M⁻¹ s⁻¹

**Q.** And the Kd [2]?
**A.** 0.00186 nM

**Q.** And the koff [2]?
**A.** 9.44e-07 s⁻¹

**Q.** What about the kon [2] of the same binder?
**A.** 508000 M⁻¹ s⁻¹

**Q.** What about the EC50 [4] of the same binder?
**A.** 0.636 nM

**Q.** And the EC50 [5]?
**A.** 0.0849 nM

B5: mouse antibody A1E4F7D4 (antibody, V domains shown)
VH: QVQLQQSGAELAKPGTSVKMSCEASGYSFTTHWIHWMKQRPGQGLEWIGTIFPSNAYAVYNQKFRDRAIMTADRSSTTAYIQLTGLTSEDSAVYYCARASYFDYWGQGTTLTVSS
VL: DILLTQSPATLSVSPGERVTFSCRASQNIGTSIHWFQQRTTGSPRLLIKYASESISGIPSRFSGSGSGTDFTLHINSVESEDIAHYYCQHSHSWPFTFGSGTKLEIQ
notes: Mouse monoclonal IgG purified from hybridoma supernatant; also called Mouse A1E4F7D4
**Q.** Which EC50 [1] does the source give for B5 here?
**A.** 0.481 nM

**Q.** What about the koff (human TROP2-his protein) of the same binder?
**A.** ~4.7e-05 s⁻¹

**Q.** And the kon (human TROP2-his protein)?
**A.** 373000 M⁻¹ s⁻¹

**Q.** And the koff [2]?
**A.** ~4.54e-05 s⁻¹

**Q.** What about the kon [2] of the same binder?
**A.** 483000 M⁻¹ s⁻¹

**Q.** What about the EC50 [3] of the same binder?
**A.** 0.576 nM

**Q.** What about the EC50 [4] of the same binder?
**A.** 1.01 nM

**Q.** And the EC50 [5]?
**A.** 0.177 nM
